In paper PMC9114808:

Target: 14-3-3 protein gamma (UniProt P61982)
Assay: peptide bead pull-down, label-free MS
Settings: reference: unphosphorylated peptide; sites T426

- binding against the reference: stronger
Substance: Septin 7 (Sept7) C-terminal tail peptide C-terminal tail, 416-438 (from UniProt Q16181) pT426 peptide
